Results reported in doi:10.1101/2022.08.13.503841 (bioRxiv, 2022).

Biological target: the molecule itself
Test: cryo-EM structure

B1: Chikungunya virus non-structural protein 1 (nsP1) (enzyme)
chain: MDPVYVDIDADSAFLKALQRAYPMFEVEPRQVTPNDHANARAFSHLAIKLIEQEIDPDSTILDIGSAPARRMMSDRKYHCVCPMRSAEDPERLANYARKLASAAGKVLDRNISGKIGDLQAVMAVPDTETPTFCLHTDVSCRQRADVAIYQDVYAVHAPTSLYHQAIKGVRLAYWVGFDTTPFMYNAMAGAYPSYSTNWADEQVLKAKNIGLCSTDLTEGRRGKLSIMRGKKLEPCDRVLFSVGSTLYPESRKLLKSWHLPSVFHLKGKLSFTCRCDTVVSCEGYVVKRITMSPGLYGKTTGYAVTHHADGFLMCKTTDTVDGERVSFSVCTYVPATICDQMTGILATEVTPEDAQKLLVGLNQRIVVNGRTQRNTNTMKNYMIPVVAQAFSKWAKECRKDMEDEKLLGVRERTLTCCCLWAFKKQKTHTVYKRPDTQSIQKVQAEFDSFVVPSLWSSGLSIPLRTRIKWLLSKVPKTDLTPYSGDAQEARDAEKEAEEEREAELTLEALPPLQAAQEDVQVEIDVEQLEDRAGA
- stoichiometry N: 12
